Measured values reported in patent publication US20250277026A1.

How the values were obtained:
human Claudin-4 (human) [1] = target: human Claudin-4 (human) (UniProt O14493); test: FACS, Claudin-4-CHO-K1 cells
human Claudin-4 (human) [2] = target: human Claudin-4 (human) (UniProt O14493); test: FACS, MCF7 cells (endogenous CLDN3 and CLDN4)
human Claudin-3 (human) [3] = target: human Claudin-3 (human) (UniProt O15551); test: FACS, Claudin-3-CHO-K1 cells (data not shown in the figures)
human Claudin-4 (human) [4] = target: human Claudin-4 (human) (UniProt O14493); test: FACS, Claudin-4-CHO-K1 cells, serial dilution of the antibody, MFI
human Claudin-3 (human) [5] = target: human Claudin-3 (human) (UniProt O15551); test: FACS, Claudin-3-CHO-K1 cells, 5 µg/ml
human Claudin-3 (human) [6] = target: human Claudin-3 (human) (UniProt O15551); test: FACS, MCF7 cells (endogenous CLDN3 and CLDN4)
human Claudin-3 (human) [7] = target: human Claudin-3 (human) (UniProt O15551); test: FACS, Claudin-3-CHO-K1 cells, serial dilution of the antibody, MFI

human Claudin-3 (human), sequence (O15551 whole entry): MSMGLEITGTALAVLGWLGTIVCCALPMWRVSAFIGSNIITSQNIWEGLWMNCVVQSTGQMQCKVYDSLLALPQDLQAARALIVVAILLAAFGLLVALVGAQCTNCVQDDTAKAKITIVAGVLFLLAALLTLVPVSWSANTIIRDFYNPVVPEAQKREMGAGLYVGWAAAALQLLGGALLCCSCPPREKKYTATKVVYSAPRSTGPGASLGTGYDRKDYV

Row | fold MFI over isotype control (human Claudin-4 (human) [1]) | fold MFI over isotype control (human Claudin-4 (human) [2]) | fold MFI over isotype control (human Claudin-3 (human) [3]) | EC50 (read off the curve) (human Claudin-4 (human) [4]) | fold MFI over isotype control (human Claudin-3 (human) [5]) | fold MFI over isotype control (human Claudin-3 (human) [6]) | EC50 (read off the curve) (human Claudin-3 (human) [7]) | Substance
1 | 33 fold | 15 fold | 9.7 fold | 2 nM | – | – | – | anti-Claudin-4 antibody MAB4219 (R&D)
2 | – | – | – | – | 61 fold | 20 fold | 0.6 nM | anti-claudin 3 antibody MAB4620 (R&D)
